In article PMC9989938 (Immunity, 2023):

B1: 230AS-73 scFv (scFv, V domains shown)
VH: QVQLQQWGAGLLKPSETLSLTCAVSGASFSGYSWTWIRQSPGKGLEWIGEIDYRGSTNYNPSLKSRVTMSVDTPKNQFSLNLTSLTAADTAIYYCAKGYGGVTLVRGAKINWFDPWGQGTLVTVSS
VL: EIVLTQSPGTLSLSPGERATLSCRASQSVTSRYLAWYQQKPGQAPRLLIFGASSRATGIPDRFSGSGSGTDFTLTISRLEPEDFAVYFCQQYAKSPWTFGQGTKVEIK
B2: 230AL-37 IgG (antibody, V domains shown)
VH: QVQLVESGGGVVQPGGSLRLSCTASGLIFNKYGIYWVRQAPGKGLEWVAFIRYDGTNQFYADSVKGRFTISRDNSKNKVYLQMNSLRAEDTALYYCAKDRGSIIVFDHWGQGTLVTVSS
VL: EIVLTQSPATLSLSPGERVTLSCRASQAVGIYLAWYQQKPGQAPRLLIYHVSKRDTGVPDRFSGSGSGTDFTLTISSLEPEDFAVYYCQQHRNWPPITFGQGTRLEIK
B3: 230AL-37 scFv (scFv, V domains shown)
VH: B2 VH
VL: B2 VL

Assays:
[1] = molecular target: Pfs230D1D2 (first two 6-Cys domains of Pfs230), 6xHis (Plasmodium falciparum 3D7, UniProt P68874); assay: crystal structure
[2] = molecular target: Biotinylated Pfs230D1 (Plasmodium falciparum 3D7, UniProt P68874, biotin (site not stated)); assay: BLI
[3] = molecular target: Pfs230D1 G605R variant, 6xHis, from Expi293 cells (P. falciparum, UniProt P68874, G605R); assay: BLI
[4] = molecular target: Pfs230D1 G605S variant, 6xHis, from Expi293 cells (P. falciparum, UniProt P68874, G605S); assay: BLI
[5] = molecular target: Pfs230 domain 1 (Pfs230D1), wild-type, 6xHis, from Expi293 cells (P. falciparum, UniProt P68874); assay: BLI
[6] = molecular target: Pfs230D1 D714N variant, 6xHis, from Expi293 cells (P. falciparum, UniProt P68874); assay: BLI

Binder | binding result [1] | binding result [2] | Kd [3] [nM] | koff [3] [s⁻¹] | kon [3] [M⁻¹ s⁻¹] | Kd [4] [nM] | koff [4] [s⁻¹] | kon [4] [M⁻¹ s⁻¹] | Kd [5] [nM] | koff [5] [s⁻¹] | kon [5] [M⁻¹ s⁻¹] | Kd [6] [nM] | koff [6] [s⁻¹] | kon [6] [M⁻¹ s⁻¹]
B1 | binds | binds | – | – | – | – | – | – | – | – | – | – | – | –
B2 | – | – | 5.01 | 0.000426 | 85100 | 0.65 | 0.000147 | 214000 | 0.34 | 0.000181 | 538000 | 15 | 0.00422 | 291000
B3 | binds | – | – | – | – | – | – | – | – | – | – | – | – | –
